Measurements: patent US20220220204A1
pEC50: −log10 of the molar value. One block for each substance: values may come before it.

Tests used:
[1] = target: human LAG-3 (LAG-3 effector Jurkat T cells) (human) (UniProt P18627); test: cell-based or functional assay
[2] = target: human PD-L1 (PD-L1 aAPC/CHO-K1 cells) (human) (UniProt Q9NZQ7); test: cell-based or functional assay
PD-L1 = PD-L1 (UniProt Q9NZQ7); test: FACS binding
Sequence of PD-L1 (Q9NZQ7 19-290): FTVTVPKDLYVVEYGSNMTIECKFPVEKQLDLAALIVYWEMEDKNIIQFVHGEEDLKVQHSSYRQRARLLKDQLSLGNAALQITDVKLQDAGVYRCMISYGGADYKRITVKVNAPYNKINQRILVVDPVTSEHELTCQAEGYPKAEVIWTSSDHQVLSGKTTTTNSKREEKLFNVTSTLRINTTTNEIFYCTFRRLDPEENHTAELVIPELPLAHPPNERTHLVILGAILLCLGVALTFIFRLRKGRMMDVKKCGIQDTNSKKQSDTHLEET

Sequence of human LAG-3 (LAG-3 effector Jurkat T cells) (human) (P18627 23-525): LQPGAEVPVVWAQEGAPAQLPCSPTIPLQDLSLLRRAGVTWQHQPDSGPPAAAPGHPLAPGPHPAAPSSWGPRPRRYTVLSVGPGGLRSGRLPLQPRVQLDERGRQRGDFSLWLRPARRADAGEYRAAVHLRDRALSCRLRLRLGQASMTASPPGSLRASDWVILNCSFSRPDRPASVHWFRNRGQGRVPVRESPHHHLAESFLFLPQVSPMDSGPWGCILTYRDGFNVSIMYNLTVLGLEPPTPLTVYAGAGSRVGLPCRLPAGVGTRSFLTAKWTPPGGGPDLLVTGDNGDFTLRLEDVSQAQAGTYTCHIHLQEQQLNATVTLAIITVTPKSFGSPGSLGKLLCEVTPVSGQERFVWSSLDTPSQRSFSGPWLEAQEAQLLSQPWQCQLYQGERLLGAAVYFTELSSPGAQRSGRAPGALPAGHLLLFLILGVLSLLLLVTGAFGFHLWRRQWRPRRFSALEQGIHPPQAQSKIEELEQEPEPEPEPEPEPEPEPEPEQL
Sequence of human PD-L1 (PD-L1 aAPC/CHO-K1 cells) (human) (Q9NZQ7 19-290): as the sequence (Q9NZQ7 19-290) above

Bottom (LAG-3 blockade bioassay) [1]: 312000
Log EC50 (LAG-3 blockade bioassay) [1]: 0.841
Top (LAG-3 blockade bioassay) [1]: 918000
Substance: 25F7 biosimilar (antibody)

Bottom (PD-1/PD-L1 blockade bioassay) [2]: 28700
EC50 (PD-1/PD-L1 blockade bioassay) [2]: 0.342
Log EC50 (PD-1/PD-L1 blockade bioassay) [2]: -0.467
Top (PD-1/PD-L1 blockade bioassay) [2]: 117000
Substance: Tecentriq biosimilar (antibody)

pEC50 (PD-L1): 11.05
Substance: human IgG
